Consider 16 substances from paper PMC13061415.

One assay has as its target Wdr26 (102–641) (mouse) (UniProt Q8C6G8). As to the kind of experiment: ITC; competition: RanBP9-Twa1 or RanBP10-Twa1 complex (160 μM) titrated into pre-formed Twa1_52-muskelin or Twa1_52-Wdr26 complex (16 μM); 25°C; competitive binding model with the parameters of the first titration. (In general: In ITC the heat of successive injections is recorded.)
The next assay concerns the target muskelin (1–735) (rat) (UniProt Q99PV3). The description is as above.
The target in assay [1] is muskelin CTLH-CRA domain (205–735 Δ248–625) (UniProt Q99PV3). Nature of the assay: ITC. The following applies: 160 µM muskelin + 16 µM RanBP10.
Assay [2] has the same target. As to the kind of experiment: ITC. The following applies: for other: -TΔS / dG / other: ΔH: read off a plot.
The target in assay [3] is RanBP10 CTLH-CRA domain Q519G (mouse). Nature of the assay: SEC-MALS; RanBP10 Q519G (Q547G) dilution series; molar masses of 0.3 ml peak fractions against concentration, one-site binding fit; dimer to monomers. (In general: Size exclusion chromatography separates by hydrodynamic size, large species first.)
Assay [4] concerns the target Maea CTLH-CRA domain (156-279) (mouse) (UniProt Q4VC33). Nature of the assay: SEC-MALS; purified CTLH-CRA domains alone or mixed (RanBP10 and Twa1 variants with Maea or muskelin), final concentration 250 μM, Superdex 75 10/300 GL.
In assay [5] the target is RanBP10 CTLH-CRA domain (315–608, Δ382–529), wild type (mouse). Nature of the assay: ITC; muskelin CTLH-CRA (160 μM, syringe) titrated into RanBP10 or Twa1 CTLH-CRA variants (16 μM, cell); 25°C; 20 mM tricine pH 8.0, 500 mM NaCl, 1 mM TCEP; one-site model.
Assay [6] has as its target RanBP10 CTLH-CRA domain (315–608, Δ382–529), wild type. Nature of the assay: ITC. The following applies: 160 µM muskelin + 16 µM RanBP10.
For assay [7] the target is unchanged. Nature of the assay: ITC. To be noted: 160 µM muskelin + 16 µM RanBP10. This is another data set of the same source.
In assay [8] the target is RanBP10 CTLH-CRA domain (315–608, Δ382–529), wild type (mouse). Nature of the assay: SEC-MALS; CTLH-CRA domain complexes co-expressed in E. coli and purified as complexes; Superdex 75 10/300 GL; 20 mM tricine pH 8.0, 500 mM NaCl, 1 mM TCEP.
Setting [9] is: 160 µM muskelin + 16 µM RanBP10 mutants.
Setting [10] is: 160 µM muskelin + 16 µM RanBP10 mutants, parent: est. 4.1 kcal/mol.
The mark [11] stands for this setting: 160 µM muskelin + 16 µM RanBP10 mutants, parent: est. -11 kcal/mol.
Setting [12] is: 160 µM muskelin + 16 µM RanBP10 mutants, parent: est. -16 kcal/mol.
Setting [13] is: 160 µM muskelin + 16 µM Twa1 mutants.

Maea CTLH-CRA domain (156-279) (mouse), sequence (Q4VC33 156-279): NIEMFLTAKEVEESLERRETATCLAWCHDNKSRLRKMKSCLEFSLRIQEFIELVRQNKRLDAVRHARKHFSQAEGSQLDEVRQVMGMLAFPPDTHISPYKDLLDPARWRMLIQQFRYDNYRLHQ
Wdr26 (102–641) (mouse), sequence (Q8C6G8 102-641): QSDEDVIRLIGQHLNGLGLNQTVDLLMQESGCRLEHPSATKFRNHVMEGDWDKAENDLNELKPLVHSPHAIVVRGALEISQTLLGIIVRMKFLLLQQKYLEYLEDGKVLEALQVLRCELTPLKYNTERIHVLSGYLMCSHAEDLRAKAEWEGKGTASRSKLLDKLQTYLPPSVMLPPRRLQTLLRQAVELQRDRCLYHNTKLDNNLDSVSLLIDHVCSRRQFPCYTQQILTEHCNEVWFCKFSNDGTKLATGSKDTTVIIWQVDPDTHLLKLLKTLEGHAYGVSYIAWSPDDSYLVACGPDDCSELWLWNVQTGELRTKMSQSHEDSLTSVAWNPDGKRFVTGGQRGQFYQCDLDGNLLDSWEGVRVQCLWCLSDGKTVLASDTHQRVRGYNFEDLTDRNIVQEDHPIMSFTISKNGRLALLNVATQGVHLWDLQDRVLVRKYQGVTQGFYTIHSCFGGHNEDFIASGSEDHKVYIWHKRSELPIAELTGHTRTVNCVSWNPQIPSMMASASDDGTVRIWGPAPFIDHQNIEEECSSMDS

Broadly, the Kd is the equilibrium constant for the complex coming apart. In the case of “RanBP10 (57–648)-Twa1 (1–228) complex (from UniProt Q9D7M1 1-228)”, the Kd with Wdr26 (102–641) (mouse) came out at 0.0623 nM; with muskelin (1–735) (rat) it was 0.07 nM.
Take “RanBP10 CTLH-CRA domain (315–608, Δ382–529), wild type F543L”: the Kd in [1] and in [2] (setting [9]) was 83.7 nM in each case. Also, the other: molar ratio n in assay [2] (setting [9]) came out at 0.88. Besides, in assay [2] (setting [10]), the other: -TΔS is -2.93 kJ/mol. The dG in assay [2] (setting [11]) is -40.2 kJ/mol. Further, the other: ΔH in assay [2] (setting [12]) was -36.8 kJ/mol.
Consider “RanBP10 CTLH-CRA domain (315–608, Δ382–529), wild type F543L; V556F”, for which the Kd in assay [1] stood at 338 nM. Besides, in assay [2] (setting [9]), the Kd amounted to 338 nM and the other: molar ratio n is 0.98. Further, the other: -TΔS in [2] (setting [10]) was -2.09 kJ/mol. Moreover, in [2] (setting [11]), the dG was -37.2 kJ/mol. Further, the other: ΔH in assay [2] (setting [12]) is -35.1 kJ/mol.
Regarding “RanBP10 CTLH-CRA domain (315–608, Δ382–529), wild type F543L; Y548F”, the equilibrium dissociation constant (Kd) in assay [1] turned out to be 390 nM. Also, in assay [2] (setting [9]), the Kd was 390 nM and the other: molar ratio n is 0.91. The other: -TΔS in assay [2] (setting [10]) was -13.8 kJ/mol. For the same substance, in assay [2] (setting [11]), the dG is -36.8 kJ/mol. In addition, the other: ΔH in assay [2] (setting [12]) is -22.6 kJ/mol.
“RanBP10 CTLH-CRA domain (315–608, Δ382–529), wild type Q519G”: in assay [2] (setting [9]), the dissociation constant Kd came out at 8.49 nM and the other: molar ratio n came to 0.93. For the same substance, the other: -TΔS in assay [2] (setting [10]) turned out to be 17.2 kJ/mol. Moreover, the dG in assay [2] (setting [11]) was -46 kJ/mol. Further, the other: ΔH in assay [2] (setting [12]) is -62.8 kJ/mol.
As to “RanBP10 CTLH-CRA domain (315–608, Δ382–529), wild type V556F”, the other: molar ratio n in [2] (setting [9]) turned out to be 0.8. Moreover, the other: -TΔS in assay [2] (setting [10]) was found to be 20.9 kJ/mol. The dG in assay [2] (setting [11]) is -46 kJ/mol. In addition, the other: ΔH in assay [2] (setting [12]) was -66.9 kJ/mol.
Turning to “RanBP10 CTLH-CRA domain (315–608, Δ382–529), wild type Y548F”, the Kd in assay [1] was 54.8 nM. Moreover, in [2] (setting [9]), the Kd came to 54.8 nM and the other: molar ratio n amounted to 1.06. Moreover, in assay [2] (setting [10]), the other: -TΔS was 7.95 kJ/mol. Also, in [2] (setting [11]), the dG was -41.8 kJ/mol. Besides, the other: ΔH in assay [2] (setting [12]) is -50.2 kJ/mol.
“RanBP10 CTLH-CRA domain (315–608, Δ382–529), wild type Y548F; V556F”: the Kd in assay [1] and in [2] (setting [9]) was 298 nM throughout. Further, the other: molar ratio n in assay [2] (setting [9]) was found to be 0.95. In assay [2] (setting [10]), the other: -TΔS is -2.51 kJ/mol. For the same substance, the dG in assay [2] (setting [11]) is -37.7 kJ/mol. The other: ΔH in [2] (setting [12]) is -34.7 kJ/mol.
In general, stoichiometry N refers to the number of molecules, sites or subunits per partner or assembly. Take “RanBP10 CTLH-CRA domain Q519G (domain or fragment)”: the dissociation constant (Kd) in [3] came to 18000 nM. Moreover, the stoichiometry N in assay [4] worked out at 1.
In turn, “RanBP10 CTLH-CRA domain Q519G, F543L, Y548F, V556F (quadruple mutant) (from UniProt Q6VN19 315-608) (domain or fragment)” yielded a stoichiometry N in assay [4] of 1.
“Twa1 CTLH-CRA domain (58-190), wild type (from UniProt Q9D7M1) A125G; Q126R; T127del; A130Q; L140K; M143L; E144K; L147F; F152Y”: in assay [2] (setting [13]), the Kd came out at 795 nM, the other: molar ratio n came to 0.94, the dG was -34.7 kJ/mol and the other: -TΔS was -1.67 kJ/mol. For the same substance, the other: ΔH in assay [2] (setting [13]) is -33.1 kJ/mol.
For “Twa1 CTLH-CRA domain (58-190), wild type (from UniProt Q9D7M1) A125G; Q126R; T127del; Q128E; A130Q; L140K; M143L; E144Q; L147F; A148S; F152Y; F160V”, in [2] (setting [13]), the Kd was 247 nM, the other: molar ratio n is 1.05, the dG was -37.7 kJ/mol and the other: -TΔS was 18 kJ/mol. Also, the other: ΔH in [2] (setting [13]) is -54.4 kJ/mol.
Taken in the same sequence, the figures for “Twa1 CTLH-CRA domain (58-190), wild type (from UniProt Q9D7M1) A125G; Q126R; T127del; Q128E; A130Q; M143L; E144Q; L147F; A148S; F152Y” were 354 nM, 0.95, -36.8 kJ/mol, 14.2 kJ/mol and -50.2 kJ/mol.
“muskelin CTLH-CRA domain (205–735 Δ248–625) (from UniProt Q99PV3 205-735) (domain or fragment)” displayed a Kd in assay [5] of 4.33 nM.
Consider “muskelin CTLH-CRA domain (205–735 Δ248–625) (from UniProt Q99PV3) F686L”, for which, in assay [6], the Kd came out at 56.7 nM. In assay [7], the Kd turned out to be 56.7 nM and the other: molar ratio n was found to be 1.07. The other: -TΔS in assay [7] (parent: est. 4.1 kcal/mol, read off a plot) was -6.69 kJ/mol. In addition, the dG in [7] (parent: est. -11 kcal/mol, read off a plot) is -41.4 kJ/mol. Further, the other: ΔH in [7] (parent: est. -16 kcal/mol, read off a plot) is -34.3 kJ/mol.
Consider “muskelin CTLH-CRA domain, C-terminally shortened (205–719, Δ248–624) (from UniProt Q99PV3 205-719) (domain or fragment)”, for which the stoichiometry N in assay [8] was 1.
